From patent publication US12679878B2, “CRF2 receptor agonists and their use in therapy” (SANOFI, priority 2020, dated 2026)
Starred links: 1 amine or outer side, 2 acyl side, 3 side chain; linkers in the order of their positions; H or OH if unused. Non-standard residues stand in square brackets, D forms with d. Groups on a side chain read outwards from the residue. No end group written: not given here. *: point of attachment. C18 diacid = O=C(O)CCCCCCCCCCCCCCCCC(=O)*; γGlu = O=C(O)[C@H](CCC(=O)[*:2])N[*:1]; AEEA = NCCOCCOCC(=O)O; Aib = CC(C)(N)C(=O)O

The binders below were run against human corticotropin-releasing factor 2α (CRF2 α receptor) (human), Q13324 (assay: cell-based or functional assay).
Chain of human corticotropin-releasing factor 2α (CRF2 α receptor) (human), Q13324 (Q13324 20-411): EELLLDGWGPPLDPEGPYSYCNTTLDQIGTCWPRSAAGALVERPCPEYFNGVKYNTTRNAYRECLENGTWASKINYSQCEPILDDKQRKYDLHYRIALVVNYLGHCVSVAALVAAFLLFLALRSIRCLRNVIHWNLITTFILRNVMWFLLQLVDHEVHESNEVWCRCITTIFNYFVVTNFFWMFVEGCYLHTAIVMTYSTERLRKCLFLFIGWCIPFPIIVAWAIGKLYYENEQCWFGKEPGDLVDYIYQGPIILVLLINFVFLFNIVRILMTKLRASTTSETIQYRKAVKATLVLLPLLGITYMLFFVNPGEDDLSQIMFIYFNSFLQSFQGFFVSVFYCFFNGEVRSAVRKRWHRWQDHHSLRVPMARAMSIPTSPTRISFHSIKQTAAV

Binder	EC50 [nM], 0% HSA	EC50 [nM], 0.1% HSA
IVLSLDVPTKLK([AEEA-AEEA-γGlu-C18 diacid])QILLKQERQR[Aib]ERQQAETNVRILERV-NH2 (N-terminus assumed; SMILES CC[C@H](C)[C@H](N)C(=O)N[C@H](C(=O)N[C@@H](CC(C)C)C(=O)N[C@@H](CO)C(=O)N[C@@H](CC(C)C)C(=O)N[C@@H](CC(=O)O)C(=O)N[C@H](C(=O)N1CCC[C@H]1C(=O)N[C@H](C(=O)N[C@@H](CCCCN)C(=O)N[C@@H](CC(C)C)C(=O)N[C@@H](CCCCNC(=O)COCCOCCNC(=O)COCCOCCNC(=O)CC[C@H](NC(=O)CCCCCCCCCCCCCCCCC(=O)O)C(=O)O)C(=O)N[C@@H](CCC(N)=O)C(=O)N[C@H](C(=O)N[C@@H](CC(C)C)C(=O)N[C@@H](CC(C)C)C(=O)N[C@@H](CCCCN)C(=O)N[C@@H](CCC(N)=O)C(=O)N[C@@H](CCC(=O)O)C(=O)N[C@@H](CCCNC(=N)N)C(=O)N[C@@H](CCC(N)=O)C(=O)N[C@@H](CCCNC(=N)N)C(=O)NC(C)(C)C(=O)N[C@@H](CCC(=O)O)C(=O)N[C@@H](CCCNC(=N)N)C(=O)N[C@@H](CCC(N)=O)C(=O)N[C@@H](CCC(N)=O)C(=O)N[C@@H](C)C(=O)N[C@@H](CCC(=O)O)C(=O)N[C@H](C(=O)N[C@@H](CC(N)=O)C(=O)N[C@H](C(=O)N[C@@H](CCCNC(=N)N)C(=O)N[C@H](C(=O)N[C@@H](CC(C)C)C(=O)N[C@@H](CCC(=O)O)C(=O)N[C@@H](CCCNC(=N)N)C(=O)N[C@H](C(N)=O)C(C)C)[C@@H](C)CC)C(C)C)[C@@H](C)O)[C@@H](C)CC)[C@@H](C)O)C(C)C)C(C)C) [SEQ ID NO: 50]	17.2 nM	
IVLSLDVPIKLK([AEEA-AEEA-γGlu-C18 diacid])QILLEQERQR[Aib]ERQQAETNVRILERV-NH2 (N-terminus assumed; SMILES CC[C@H](C)[C@H](N)C(=O)N[C@H](C(=O)N[C@@H](CC(C)C)C(=O)N[C@@H](CO)C(=O)N[C@@H](CC(C)C)C(=O)N[C@@H](CC(=O)O)C(=O)N[C@H](C(=O)N1CCC[C@H]1C(=O)N[C@H](C(=O)N[C@@H](CCCCN)C(=O)N[C@@H](CC(C)C)C(=O)N[C@@H](CCCCNC(=O)COCCOCCNC(=O)COCCOCCNC(=O)CC[C@H](NC(=O)CCCCCCCCCCCCCCCCC(=O)O)C(=O)O)C(=O)N[C@@H](CCC(N)=O)C(=O)N[C@H](C(=O)N[C@@H](CC(C)C)C(=O)N[C@@H](CC(C)C)C(=O)N[C@@H](CCC(=O)O)C(=O)N[C@@H](CCC(N)=O)C(=O)N[C@@H](CCC(=O)O)C(=O)N[C@@H](CCCNC(=N)N)C(=O)N[C@@H](CCC(N)=O)C(=O)N[C@@H](CCCNC(=N)N)C(=O)NC(C)(C)C(=O)N[C@@H](CCC(=O)O)C(=O)N[C@@H](CCCNC(=N)N)C(=O)N[C@@H](CCC(N)=O)C(=O)N[C@@H](CCC(N)=O)C(=O)N[C@@H](C)C(=O)N[C@@H](CCC(=O)O)C(=O)N[C@H](C(=O)N[C@@H](CC(N)=O)C(=O)N[C@H](C(=O)N[C@@H](CCCNC(=N)N)C(=O)N[C@H](C(=O)N[C@@H](CC(C)C)C(=O)N[C@@H](CCC(=O)O)C(=O)N[C@@H](CCCNC(=N)N)C(=O)N[C@H](C(N)=O)C(C)C)[C@@H](C)CC)C(C)C)[C@@H](C)O)[C@@H](C)CC)[C@@H](C)CC)C(C)C)C(C)C) [SEQ ID NO: 49]	12.7 nM	
IVLSLDVPIKLK([AEEA-AEEA-γGlu-C18 diacid])QILLEQERQR[Aib]ERQQAETNVQILAQV-NH2 (N-terminus assumed; SMILES CC[C@H](C)[C@H](N)C(=O)N[C@H](C(=O)N[C@@H](CC(C)C)C(=O)N[C@@H](CO)C(=O)N[C@@H](CC(C)C)C(=O)N[C@@H](CC(=O)O)C(=O)N[C@H](C(=O)N1CCC[C@H]1C(=O)N[C@H](C(=O)N[C@@H](CCCCN)C(=O)N[C@@H](CC(C)C)C(=O)N[C@@H](CCCCNC(=O)COCCOCCNC(=O)COCCOCCNC(=O)CC[C@H](NC(=O)CCCCCCCCCCCCCCCCC(=O)O)C(=O)O)C(=O)N[C@@H](CCC(N)=O)C(=O)N[C@H](C(=O)N[C@@H](CC(C)C)C(=O)N[C@@H](CC(C)C)C(=O)N[C@@H](CCC(=O)O)C(=O)N[C@@H](CCC(N)=O)C(=O)N[C@@H](CCC(=O)O)C(=O)N[C@@H](CCCNC(=N)N)C(=O)N[C@@H](CCC(N)=O)C(=O)N[C@@H](CCCNC(=N)N)C(=O)NC(C)(C)C(=O)N[C@@H](CCC(=O)O)C(=O)N[C@@H](CCCNC(=N)N)C(=O)N[C@@H](CCC(N)=O)C(=O)N[C@@H](CCC(N)=O)C(=O)N[C@@H](C)C(=O)N[C@@H](CCC(=O)O)C(=O)N[C@H](C(=O)N[C@@H](CC(N)=O)C(=O)N[C@H](C(=O)N[C@@H](CCC(N)=O)C(=O)N[C@H](C(=O)N[C@@H](CC(C)C)C(=O)N[C@@H](C)C(=O)N[C@@H](CCC(N)=O)C(=O)N[C@H](C(N)=O)C(C)C)[C@@H](C)CC)C(C)C)[C@@H](C)O)[C@@H](C)CC)[C@@H](C)CC)C(C)C)C(C)C) [SEQ ID NO: 48]	2.2 nM	
FTLSLDVPTKIK([AEEA-AEEA-γGlu-C18 diacid])QILLKQQKQKKERQQAEKNKQLLEQI-NH2 (N-terminus assumed; SMILES CC[C@H](C)[C@H](NC(=O)[C@H](CCC(N)=O)NC(=O)[C@H](CCC(=O)O)NC(=O)[C@H](CC(C)C)NC(=O)[C@H](CC(C)C)NC(=O)[C@H](CCC(N)=O)NC(=O)[C@H](CCCCN)NC(=O)[C@H](CC(N)=O)NC(=O)[C@H](CCCCN)NC(=O)[C@H](CCC(=O)O)NC(=O)[C@H](C)NC(=O)[C@H](CCC(N)=O)NC(=O)[C@H](CCC(N)=O)NC(=O)[C@H](CCCNC(=N)N)NC(=O)[C@H](CCC(=O)O)NC(=O)[C@H](CCCCN)NC(=O)[C@H](CCCCN)NC(=O)[C@H](CCC(N)=O)NC(=O)[C@H](CCCCN)NC(=O)[C@H](CCC(N)=O)NC(=O)[C@H](CCC(N)=O)NC(=O)[C@H](CCCCN)NC(=O)[C@H](CC(C)C)NC(=O)[C@H](CC(C)C)NC(=O)[C@@H](NC(=O)[C@H](CCC(N)=O)NC(=O)[C@H](CCCCNC(=O)COCCOCCNC(=O)COCCOCCNC(=O)CC[C@H](NC(=O)CCCCCCCCCCCCCCCCC(=O)O)C(=O)O)NC(=O)[C@@H](NC(=O)[C@H](CCCCN)NC(=O)[C@@H](NC(=O)[C@@H]1CCCN1C(=O)[C@@H](NC(=O)[C@H](CC(=O)O)NC(=O)[C@H](CC(C)C)NC(=O)[C@H](CO)NC(=O)[C@H](CC(C)C)NC(=O)[C@@H](NC(=O)[C@@H](N)Cc1ccccc1)[C@@H](C)O)C(C)C)[C@@H](C)O)[C@@H](C)CC)[C@@H](C)CC)C(N)=O) [SEQ ID NO: 51]	0.32 nM	21.4 nM

Second part, the binder after the results:

EC50 [nM], 0% HSA	EC50 [nM], 0.1% HSA	Binder
1.01 nM	55.1 nM	FTLSLDVPTKIK([AEEA-AEEA-γGlu-C18 diacid])QILLKQQKQKKERQQAETNKQLLERV-NH2 (N-terminus assumed; SMILES CC[C@H](C)[C@H](NC(=O)[C@H](CCC(N)=O)NC(=O)[C@H](CCCCNC(=O)COCCOCCNC(=O)COCCOCCNC(=O)CC[C@H](NC(=O)CCCCCCCCCCCCCCCCC(=O)O)C(=O)O)NC(=O)[C@@H](NC(=O)[C@H](CCCCN)NC(=O)[C@@H](NC(=O)[C@@H]1CCCN1C(=O)[C@@H](NC(=O)[C@H](CC(=O)O)NC(=O)[C@H](CC(C)C)NC(=O)[C@H](CO)NC(=O)[C@H](CC(C)C)NC(=O)[C@@H](NC(=O)[C@@H](N)Cc1ccccc1)[C@@H](C)O)C(C)C)[C@@H](C)O)[C@@H](C)CC)C(=O)N[C@@H](CC(C)C)C(=O)N[C@@H](CC(C)C)C(=O)N[C@@H](CCCCN)C(=O)N[C@@H](CCC(N)=O)C(=O)N[C@@H](CCC(N)=O)C(=O)N[C@@H](CCCCN)C(=O)N[C@@H](CCC(N)=O)C(=O)N[C@@H](CCCCN)C(=O)N[C@@H](CCCCN)C(=O)N[C@@H](CCC(=O)O)C(=O)N[C@@H](CCCNC(=N)N)C(=O)N[C@@H](CCC(N)=O)C(=O)N[C@@H](CCC(N)=O)C(=O)N[C@@H](C)C(=O)N[C@@H](CCC(=O)O)C(=O)N[C@H](C(=O)N[C@@H](CC(N)=O)C(=O)N[C@@H](CCCCN)C(=O)N[C@@H](CCC(N)=O)C(=O)N[C@@H](CC(C)C)C(=O)N[C@@H](CC(C)C)C(=O)N[C@@H](CCC(=O)O)C(=O)N[C@@H](CCCNC(=N)N)C(=O)N[C@H](C(N)=O)C(C)C)[C@@H](C)O) [SEQ ID NO: 53]
0.7 nM	45.8 nM	FTLSLDVPTKIK([AEEA-AEEA-γGlu-C18 diacid])QILLKQQKQKKERQQAEKNKQLLERV-NH2 (N-terminus assumed; SMILES CC[C@H](C)[C@H](NC(=O)[C@H](CCC(N)=O)NC(=O)[C@H](CCCCNC(=O)COCCOCCNC(=O)COCCOCCNC(=O)CC[C@H](NC(=O)CCCCCCCCCCCCCCCCC(=O)O)C(=O)O)NC(=O)[C@@H](NC(=O)[C@H](CCCCN)NC(=O)[C@@H](NC(=O)[C@@H]1CCCN1C(=O)[C@@H](NC(=O)[C@H](CC(=O)O)NC(=O)[C@H](CC(C)C)NC(=O)[C@H](CO)NC(=O)[C@H](CC(C)C)NC(=O)[C@@H](NC(=O)[C@@H](N)Cc1ccccc1)[C@@H](C)O)C(C)C)[C@@H](C)O)[C@@H](C)CC)C(=O)N[C@@H](CC(C)C)C(=O)N[C@@H](CC(C)C)C(=O)N[C@@H](CCCCN)C(=O)N[C@@H](CCC(N)=O)C(=O)N[C@@H](CCC(N)=O)C(=O)N[C@@H](CCCCN)C(=O)N[C@@H](CCC(N)=O)C(=O)N[C@@H](CCCCN)C(=O)N[C@@H](CCCCN)C(=O)N[C@@H](CCC(=O)O)C(=O)N[C@@H](CCCNC(=N)N)C(=O)N[C@@H](CCC(N)=O)C(=O)N[C@@H](CCC(N)=O)C(=O)N[C@@H](C)C(=O)N[C@@H](CCC(=O)O)C(=O)N[C@@H](CCCCN)C(=O)N[C@@H](CC(N)=O)C(=O)N[C@@H](CCCCN)C(=O)N[C@@H](CCC(N)=O)C(=O)N[C@@H](CC(C)C)C(=O)N[C@@H](CC(C)C)C(=O)N[C@@H](CCC(=O)O)C(=O)N[C@@H](CCCNC(=N)N)C(=O)N[C@H](C(N)=O)C(C)C) [SEQ ID NO: 52]
